Ends that are not written are not given here. Ebes = not defined here
Key:
Type in all cases: physicochemical
[1] = Circular dichroism of cyclic peptide with and without SWCNTs (α-helix stabilization); conditions: 50 μM peptide without SWCNTs
Description: (§1) CD spectra were measured using a Chirascan™ circular dichroism spectrometer equipped with a Peltier temperature controller (Applied Photophysics., Ltd.). The spectra were recorded from 260 nm to 200 nm using a 2 mm path-length cuvette. Scans were repeated five times and averaged. The molar ellipticity was calculated per amino acid residue. Before measurement, 50 μM solutions of peptides with and without SWCNTs were incubated for 24 h in 150 mM KF, and another 50 μM peptide solution without SWCNTs were incubated for 24 h in distilled water.
In order to verify the function of SWCNTs as protein mimics supporting the α-helical structures, CD spectra were measured on a 50 μM solution of peptide 2 of Synthesis Example 2 in pure water and a solution of peptide 2 in a 150 mM aqueous salt solution (spectra b (dotted line) and c (alternate long and two short dashes line) of FIG. 10, respectively). Peptide 2 at a concentration of 50 μM was added to a 150 mM aqueous salt solution containing 20 μg of SWCNTs, followed by sonication to form peptide/SWCNT hybrids, which were used for CD spectrum measurement (spectrum a (solid line) of FIG. 10).

[2] = Solubilization of SWCNTs by linear β-sheet block copolypeptide with sonication; conditions: 5 μg SWCNTs, 0.3 mL peptide solution, pure water, sonication 15 min at room temperature
Description: First, it was confirmed whether this potential β-sheet forming peptide can bind to and then solubilize SWCNTs in pure water. The arc-produced SWCNTs were suspended in tetrahydrofuran (THF) and equal amounts of the SWCNTs (5 μg) were added into microcentrifuge tubes. After THF evaporation, the block copolypeptide solution (0.3 mL) was added and the mixture was subjected to sonication at room temperature for 15 min.
Next, the influence of ionic strength on the peptide/SWCNT hybrid formation was investigated. The β-sheet contents of the block copolypeptide solution increased with increasing NaCl concentration, and the increase reached a plateau at a salt concentration of around 50-60 mM (see FIG. 5).
In contrast, the granules became smaller when salt was added (50 mM) and the solution was subjected to a vortex (the right image in a) of FIG. 3). Upon soniciation of both mixtures, a significant difference was evident.
An investigation was made as to whether preassembled β-sheet nanoribbons could be disintegrated and used to solubilize CNTs in the presence of SWCNTs (path 4 or path 5 in FIG. 1).

[3] = Circular dichroism of linear peptide and peptide/SWCNT hybrid; conditions: CD, molar ellipticity at 215 nm, peptide without SWCNTs
Description: as §1, with “250” for “260”, “190” for “200”, “5” for “50”, “12” for “24”, “20” for “150”, “or 60 mM NaCl at room temperature.” for “KF, and another 50 μM peptide solution without SWCNTs were incubated for 24 h in distilled water.”

Substance | stabilization of α-helical structure ([1]; 150 mM aqueous salt solution) | stabilization of α-helical structure ([1]; pure water) | peptide concentration at which most of the SWCNTs were suspended [2] | NaCl concentration at which the increase of β-sheet content reached a plateau [3]
cyclo [-WKWEWKWEWKWEW-Ebes-GTRQARRNRRRRWRR-Ebes-C-] (chain 2 GTRQARRNRRRRWRR-{Ebes-Cys}; reading uncertain; also: cyclic: chain 1-Ebes-chain 2-Ebes-Cys, closed head-to-tail, head-to-tail to a chain's N/C-terminus, printed as cyclo [-WKWEWKWEWKWEW-Ebes-GTRQARRNRRRRWRR-Ebes-C-]) [peptide 2] | failed to stabilize the α-helical structures | failed to stabilize the α-helical structures |  | 
GRKKRRQRRRPPQGSGGFKFEFKFEFKFE [block copolypeptide] |  |  | around 12.5 μM | 50 to 60 mM

From US9364550B2, “Bioactive carbon nanotube composite functionalized with B-sheet polypeptide block copolymer, and preparation method thereof” (INDUSTRY-ACADEMIC COOPERATION FOUNDATION, YONSEI UNIVERSITY, priority 2011, dated 2016)
